According to paper PMC6338552 (Biochemistry, 2018):
Where two headings read alike, the source gives them in different places. TMR = 6-carboxytetramethylrhodamine

B1: TMR-JIPtide (peptide)
peptide: {TMR}-RPKRPTTLNLF-OH
B2: His6-JNK1α1 (enzyme, UniProt P45983-2 1-384, looked up)
chain: MSRSKRDNNFYSVEIGDSTFTVLKRYQNLKPIGSGAQGIVCAAYDAILERNVAIKKLSRPFQNQTHAKRAYRELVLMKCVNHKNIIGLLNVFTPQKSLEEFQDVYIVMELMDANLCQVIQMELDHERMSYLLYQMLCGIKHLHSAGIIHRDLKPSNIVVKSDCTLKILDFGLARTAGTSFMMTPYVVTRYYRAPEVILGMGYKENVDLWSVGCIMGEMVCHKILFPGRDYIDQWNKVIEQLGTPCPEFMKKLQPTVRTYVENRPKYAGYSFEKLFPDVLFPADSEHNKLKASQARDLLSKMLVIDASKRISVDEALQHPYINVWYDPSEAEAPPPKIPDKQLDEREHTIEEWKELIYKEVMDLEERTKNGVIRGQPSPLAQVQQ

Experiments:
Experiment in all cases: fluorescence polarisation
[1] = biological target: T1, His6-JNK3α1 (UniProt P53779-2 1-422)
[2] = biological target: B2
[3] = biological target: T2, His6-JNK2α1 (UniProt P45984-2 1-382)
[4] = biological target: T1, His6-JNK3α1; remark: listed apart in the source
[5] = biological target: B2; remark: listed apart in the source
[6] = biological target: T2, His6-JNK2α1; remark: listed apart in the source
[7] = biological target: T1, His6-JNK3α1; remark: listed apart in the source
[8] = biological target: B2; remark: listed apart in the source
[9] = biological target: T2, His6-JNK2α1; remark: listed apart in the source
[10] = biological target: T1, His6-JNK3α1; remark: listed apart in the source
[11] = biological target: B2; remark: listed apart in the source
[12] = biological target: T2, His6-JNK2α1; remark: listed apart in the source
[13] = biological target: T1, His6-JNK3α1; remark: listed apart in the source
[14] = biological target: B2; remark: listed apart in the source
[15] = biological target: T2, His6-JNK2α1; remark: listed apart in the source
[16] = biological target: T1, His6-JNK3α1; remark: listed apart in the source
[17] = biological target: B2; remark: listed apart in the source
[18] = biological target: T2, His6-JNK2α1; remark: listed apart in the source
[19] = biological target: T1, His6-JNK3α1; remark: listed apart in the source
[20] = biological target: T1, His6-JNK3α1; remark: listed apart in the source
[21] = biological target: B2; remark: listed apart in the source
[22] = biological target: T2, His6-JNK2α1; remark: listed apart in the source
[23] = biological target: B1

Binder: B1
- Kd [1]: 2800 nM
- Kd [2]: 1500 nM
- Kd [3]: 6000 nM
- Kd [4]: 1500 nM
- Kd [5]: 440 nM
- Kd [6]: 5100 nM
- Kd [7]: 1700 nM
- Kd [8]: 680 nM
- Kd [9]: 37000 nM
- Kd [10]: 480 nM
- Kd [11]: 230 nM
- Kd [12]: 4600 nM
- Kd [13]: 12000 nM
- Kd [14]: 14000 nM
- Kd [15]: 17000 nM
- Kd [16]: 4600 nM
- Kd [17]: 3200 nM
- Kd [18]: 15000 nM
- Kd [19]: 1900 nM
- Kd [20]: 640 nM
- Kd [21]: 250 nM
- Kd [22]: 3000 nM

Binder: B2
- fold tighter binding than apo-JNK1 [23]: 2 fold
